Experimental data published in the DeepSol protein solubility set.

assay: soluble on expression in E. coli; label from the status in PepcDB or PDB records

Question: For “MGSDKIHHHHHHMKPGFVDPVFDAQAVFRAALLATAYPGRVVPLDRTLTAPRPFSSATAALCLSLMDFETPAWLDNSLDCGELTAWLRFHCSLPLTETAGEARFAIVSDPANLPRLCELHPGDAEYPDRSTTLIIQVPSFTDGPTTTWTGPGVNGSIPVGIAGLPFWFWADWDLNSELYPRGIDVVFTSGNAVIGLPRTIKVEA”, which “soluble on expression in E. coli” value is on record?
Answer: not soluble

Question: With “MFDSLAKAGKYLGQAAKLMIGMPDYDNYVEHMRVNHPDQTPMTYEEFFRERQDARYGGKGGARCC” as the sequence, how does the “soluble on expression in E. coli” value read?
Answer: soluble

Question: With “MGSDKIHHHHHHMVAITSCSDDSDGIPGWPWNDNSTEGPENPDVTEIKPRYVWIDAAANFPDYANNKENISTDMVKVKNAGFTDIIVDVRPTTGDVLFNTTAVDQVKRMDVWGSSGYVYYERTETWDYLQAFIDAARSQGLKVHASVNTFVGGYLCPYNLGSDGILFRDDSKKEWASVANLADGLTNTMDLLNDETDYGAKFLNPANDDVQNFVLQLLGDLAKYDLDGIILDRCRYDDYGLESDFSAVSKQKFEEYIGETVAHFPEDIMAPGTDEIPSDQPAYFKKWLEFRVKVIHDFIVKAREKVKSVNSEINFGVYVGAWYSSYYTSGVNWASPKYDTSAYYPKWATADYKNYGYADHLDYIFLGAYASVDKIYGSGEWTMEGFCKNGRELLKGDVPFSGGPDIGNGTGWTNGGQAAKIPDAIDACINNSDGFFAFDLCHIKMYDYWNAFKTGFDNYLESVQK” as the sequence, how does the “soluble on expression in E. coli” value read?
Answer: not soluble

Question: Which “soluble on expression in E. coli” value does the source give for “MGHHHHHHGGHMSLEIVKEVERLIREGKILDAFELVKQSAPEELRERIEKSFRDAEEIKKLDGIWKKLMLILHFVYASQDAVERQDKQSLVSCVVSSVNAIKLTIELGMKSITPVLMRNAARALILMDMKENAERMYTEAEKICEENRDEEMLAAIENDLATLYYDMGKYNEAKVKAEEALEIRRKIGTKEELAESLATASEIYVKLGDFDEAEECYREAEKLYRELVEEAESFKLNLAILLSNYAMFRKKLGRYQEAEKMFKEALEIFQNLERIDADFMQFVAAAYRHLGDLYREMKEYSKAEEYYKLSREKFRDIQKRWESVASEGGS” here?
Answer: soluble

Question: For “MLSALLIAKRYSSKEDTMPHLFPDLPYAYDALEPYIDTKTMEVHYSKHHRTYYDKFLSAIKGTEHEDRPLSEIFARVSTLPAAVRNHGGGYYNHIVYWNCMKPNAGGEPQGELAAEIERQFGSFAQFKEAFSQAAVNTFGSGFVWLIVQQGQLSITSTSNQDNPLMDVVAVRGEPILALDVWEHAYYIRYQNRRPEYIDAWWNVVNWEAVSENYAIALTQAA”, which “soluble on expression in E. coli” value is on record?
Answer: not soluble

Question: With “MAKRIQFSTVGGPEVLEYVDFEPEAPGPQAVVVRNKAIGLNFIDTYYRSGLYPAPFLPSGLGAEGAGVVEAVGDEVTRFKVGDRVAYGTGPLGAYSEVHVLPEANLVKLADSVSFEQAAALMLKGLTVQYLLRQTYQVKPGEIILFHAAAGGVGSLACQWAKALGAKLIGTVSSPEKAAHAKALGAWETIDYSHEDVAKRVLELTDGKKCPVVYDGVGQDTWLTSLDSVAPRGLVVSFGNASGPVSGVNLGILAQKDSVYVTRPTLGSYANNAQNLQTMADELFDMLASGKLKVDGIEQYALKDAAKAQIELSARRTTGSTILIP” as the sequence, how does the “soluble on expression in E. coli” value read?
Answer: soluble

Question: For “MVLSQTHHHHHRHEGNDRSLISILTDPIVNLFRSIPIEILDQNEELSPSQKDFLDDFLELQNDSDLEESEDFIQESQEVVSSVDDEIKVILNEIINQVETETQLIPKIIIHSDDAEVPEESIEIAVQSFGCPLDSFSGLSDSGVDLTVDDVPDDEDDEITVQTFESTPKELPTVTKFTNCTFIRSQSSARCKAILPDTTYICTLPPVSATFSAPVVTPKKIVKRKKSTSAAAKMAAEVLQNEPHCFIAPSSSIDRPFKLLVQKETFLIDAESMSRISPIFNVMCFGKDFEKMDLSREIVDEKSNDIDCFLRAVHDTSMINSSNFALVLRLSNKYQVDPVIDACQNFIIRQHLDVLRADEILTMLIAAFEHHCKREVVQKLIKRLASEGNSVFTKLKISRYLPAQVYGSVISTSMNLNQAKEHELMNGHVLKMERSKIRWRQSVCEECKSVAECANCEECKKTVCRNHVSKLKCSSDYGAKLAADLKKKIVDFEWQD”, which “soluble on expression in E. coli” value is on record?
Answer: not soluble

Question: For “MADPNWAYAPPTNYYADHSIAKPIMISGGHPSQDQGHSPKSESFGQSVTTAFNGMVDNLVGSPSSSVQQRNYFTTTPFPISRSPNDRNDDKIMGNGSYGVPIPIPQDGVPQGTPDFQMTPFLQQGGHLIGGSPNGPVQVSGNWYSGGAGIFSTMQQADPSNGMPGMAAEFVNNENGMPGPNGMHQQAMISGSPPFPYQNMMNLTTSFGAMGLGPQQIQQRDPQMFQQPILHEPIQGMAQNGFGQQVFFTQMQNQQHPQGQAQQQLQQLAQQHQQQQNSQQFFGQGPNGMGNGGVMNDWSQRSFGMPQQQAQQNGLPPNFSQNPPRRRGPEDPNGQTPKTLQDIKNNVIEFAKDQHGSRFIQQKLERASLRDKAAIFTPVLENAEELMTDVFGNYVIQKFFEFGNNEQRNQLVGTIRGNVMKLALQMYGCRVIQKALEYVEEKYQHEILGEMEGQVLKCVKDQNGNHVIQKVIERVEPERLQFIIDAFTKNNSDNVYTLSVHPYGCRVIQRVLEYCNEEQKQPVLDALQIHLKQLVLDQYGNYVIQHVIEHGSPSDKEQIVQDVISDDLLKFAQHKFASNVIEKCLTFGGHAERNLIIDKVCGDPNDPSPPLLQMMKDPFANYVVQKMLDVADPQHRKKITLTIKPHIATLRKYNFGKHILLKLEKYFAKQAPANSSNSSSNDQIYEHSPFDIPLGADFSNHPF”, which “soluble on expression in E. coli” value is on record?
Answer: not soluble

Question: For “SLDRGEQGLLKTEPVAEEGEDAVTMLSAPEALTEEEQEELRRELTKVEEEIQTLSQVLAAKEKHLAELKRKLGISSLQEFKQNIAKGWQDVTATNAYKKTSETLSQAGQKASAAFSSVGSVITKKLEDVKNSPTFKSFEEKVENLKSKVGGAKPAGGDFGEVLNSTANATSTMTTEPPPEQMTES”, which “soluble on expression in E. coli” value is on record?
Answer: soluble

Question: For “MRPQNTNGDFYVDTTCIDCDTCRWMTPEVFHRVDEMSAVYHQPTNETERLAALQALLSCPTSSIGTVEKLEHHHHHH”, which “soluble on expression in E. coli” value is on record?
Answer: not soluble

Question: Which “soluble on expression in E. coli” value does the source give for “MGSDKIHHHHHHMNIRTLAAYMVFQCVFLISWSQDLKRVQKTITTLTSKTYHGRGAASNGDGLAAAYLEKQYKETGLKPVDTNFLQPFTYAINTFPGKMKLKSNLGVFKPGIDYIVKSTSGPGKGTCDVYLVDTLIFTDDGKLKEFLQLDVTALVVVYPKKYFKEFTASTPDLLKQLYSAAAIIELQDKKLTMALADQSFGTPVFEVLTTSFSPDIKTISFEIENELIKKHQANNVIGMIEGRSKKDSFIVLTAHYDHLGTLGRKAYFPGANDNASGVSMLLEFAHYYMENPPEYSMLFIAFAGEESGLLGSSYFVAHPLVPLAGIHFLINLDLLGTGDDGIMVVNGSVFKPAYNRLIAINEEKKLLPAIKMRGEAANSDHYPFYKKGVPCFFIYTLGGVAAYHDVQDVAKTLPLTKYREVFQLIVLFNGEK” here?
Answer: not soluble

Question: For “MRTEKEMIDLIMNTAKEDERIRAVIMNGSRVNPNVKKDCFQDFDIIYAVKDIRSFTSNHNWIHRFGEIMIVQMPEEMSLIPADEDGKFPYLMQFMDGNRIDLTLAPVELINNFVRQDSLSKLLLDKDNCMEGFPPASDKDYLIKKPTEKEFLDCCNEFWWCSTNVAKGLWREELSYVKGMLDGPVRDMLIVMLEWHIGMKTDFIVNAGKFGKHFEKYIEKDMWVQFKRTFSNAEYENIWESFFDMGNLFREVANEIANAYGYPYPQGDDDRVTSYLKHVKALPKDSTSIY”, which “soluble on expression in E. coli” value is on record?
Answer: not soluble

Question: For “MGSDKIHHHHHHMYRVIELGHVISAPFAGEILRHLGFEVIKIEPLLGDPSRKDDVLVDSMFVFNNRGKRSISVDLRKEKGKEVFLRLVRNSHVLIENLSPHVMDRLGLSDDVIFSTNPSLVYCSIKGYPKGKYENLPAFGTIIEAESGIMDANGKARLPASITDMNASTYCVITILWALLMKKPGHYRVSIIQANTVWLGYYLIAYQKYGKLFEAGKDELPFWAPYELFKSSEEKEFYLAVNDNEKFTKLCKALGLEDLLADERFKTNADRVRNRKILHEKLQQKFSSMKLEEIMNILRYNDIPVGKLNNLKDLISNELVEWDTFRNVQVPKLPLPGSLNSQHVPNVGEDTLYILKELGYSENEIESMIKENVINYNK”, which “soluble on expression in E. coli” value is on record?
Answer: not soluble

Question: Which “soluble on expression in E. coli” value does the source give for “MGSDKIHHHHHHGVDTKGPAGIDATELYASLDLSLLVGNSNVTTKSSELTGPTDGTEENMTKDERSVSDCYIAIFKYDSKTKNVGDFLTSYYSSNGSISESLIFKIPKDKSERTDLKIVVIANAAASVSKYGLASASQISYADLKGKTLVEVPNVFVKVGETEIAKGDGGTYPDNKGGVYVNISEKILGLDQPANTPVEVKLIQRTAAIMLQQFKILKSDGTEYDNVEIKGLSLLNSKTIGQVAGEVSSGEKLYGMQSVNGTTERLYSYENTSSSQPTTLKIDYVYNNGETGSCSFPIKSRLSEASDPKAEVWAGYLYKLTVKLTNAAVDVTVKCVTQDWVFNKDHELEFTF” here?
Answer: not soluble

Question: Which “soluble on expression in E. coli” value does the source give for “MKLEASCGTATSEVPKPEKKTARDAEPSSETRPQEVEAEPRSGSGPEAEAEPLDFVVATERESEEVLAISGGIYGGLDYLPSRYHSWLRDPDRTVVLAKRNGGVIALESVNVIDAGETVLVEGLRVAPWERGKGVAGLLQRFCSQLVKRQHPGVKVARLTRDDQLGPRELKKYRLITKQGILLVRFNASALLAGLGARLAALRTSGTFSPLPTEAVSEAGGDVARLLLSPSVQRDVLPGGTIIQDWQPYRPSESNLRLLAAKGLEWRVDSRARPRVLTLCTRPFPIPHGGDGTWRYLNIDAFGSDGAQVQSQLLWHLQRQAPRLVGLNVMCQLFLEPQLWSQLADFCQVGLGLELVKGYTEQYLLEADI” here?
Answer: soluble

Question: For “METFDVVVIGAGAAGMMCAIEAGKRGRSVLVIDHAKAPGEKIRISGGGRCNFTNTGASIHNFLSANPKFALSALRRYRPRDFIALVERYGIAYHEKTLGQLFCDGSAKQIITMLLTEMKAAGVTLRLETSVESVAKAVSGFEVSLSSGKVACASLVVASGGKSIPKMGATGLGYDIAKQFGLNIIETRPALVPLTFEAGMLARLTPLSGVALDAVVGHGKTKFQEGMLFTHRGLSGPSILQISSYWREGDEIRVDMAPGVDALAALKTARTATPRQAVATVLATLLPKRVAQVIAEEEAPDKGNIADCSDKVLGRLASAVNAWTFKPVGSEGYRTAEVTLGGVDTEALDSRTLEAKAVPGLFFIGEVVDVTGWLGGYNFQWAWASGWSAGQSV”, which “soluble on expression in E. coli” value is on record?
Answer: soluble

Question: For “MSLAKKNYILVIDDDVMMSQTISDFIHGKGYHVIVCNNLEEAFSELSQYKIDLILINFWQPDGTALILLEHLNEEKITTPVIVISNTKEHQSVLECFRMGVLDFVVKPINLEIFWYKVECLLTRVKLQHEVKLQRVELEKMLYEKAREEKMARNLFEHLVNIDNTQFEFVRTFCQASANFSGDIILKGLAPNGNFFLMPEFNSEVRHSTIKQLIGEEGHHHHHH”, which “soluble on expression in E. coli” value is on record?
Answer: soluble

Question: For “MGSDKIHHHHHHMAKSKIDELMSVGIDIGKDTFHVVAFDPDGHLVMRKRIKRLALVATFEKLPRCVVGMEACLSAHFVSRTLRKMGFEPGIIPAIYVKPFIKGQKNDYNYAEAISEAALRPNLPVVPEKSQEQLDLQALHRVRSRLVSRRTASINQIRAFLIEQGITVRKGLRVLKNSFGKILDERKDEISPRMRTILIGLYGDWLWLDDRIDTVSKEIEQISRTEENCINVMTVPGIGPMISTAMVAAIGTGEAFGRGRDFAAWVGLVPRQYSTGGRTILGRITKRGSRYLRMLFVQAAKVILMRTNRWPDFSFGDWLIKAAERMNRNKLAVALANKLARMA”, which “soluble on expression in E. coli” value is on record?
Answer: not soluble

Question: With “MIKQVGNTQINPLHRLTCHCGKVELELTLPNGIEKPRRCDCSMCRRRGAIVASVPLSGIRIVQGDDVLKLYQFNTHTAKHFFCSECGIYTHHQRRSDPSEYGYNVGCLEGVNPYELGDIEVMDGVNHPSDRLEHHHHHH” as the sequence, how does the “soluble on expression in E. coli” value read?
Answer: not soluble
